{"source": "patent US20150335768A1", "about": "(CURATORS OF THE UNIVERSITY OF MISSOURI, published 2015)", "binders": {"B1": {"name": "biotinylated synthetic p6.1 peptide (peptide)", "peptide": "KCCYSL", "modifications": "cysteine pairing not given here; also: biotin label, position not given here", "notes": "Biotinylated analog of KCCYSL used in immunoblot, ELISA and cell staining; also called biotinylated p6.1"}, "B2": {"name": "synthetic p6.1 peptide KCCYSL (peptide)", "peptide": "KCCYSL", "modifications": "not fully specified (bridges); also: present as oxidized and reduced monomer", "notes": "Chemically synthesized, not biotinylated; used in the fluorescence titration"}, "B3": {"name": "phage-displayed p6.2 peptide WYAWML (peptide)", "chain": "WYAWML", "notes": "Only seen as phage clone; not synthesized; not shown: minor coat protein pIII of the fUSE5 (M13/fd type) bacteriophage vector; peptide inserted near the N-terminus of mature"}, "B4": {"name": "phage-displayed p6.1 peptide KCCYSL (peptide)", "chain": "KCCYSL", "modifications": "also: C2-C3 disulfide in the oxidized monomer fraction", "notes": "Insert of the phage clones selected from the 6-mer library F3-6; not shown: minor coat protein pIII of the fUSE5 (M13/fd type) bacteriophage vector; peptide inserted near the N-terminus of mature"}, "B5": {"name": "phage-displayed p6.3 peptide WYSWLL (peptide)", "chain": "WYSWLL", "notes": "as for B3"}}, "key": {"bovine serum albumin": {"target": "T1, bovine serum albumin (bovine, UniProt P02769 25-607)", "T1 construct": "Control protein spotted on nitrocellulose; also called BSA", "T1 sequence (P02769 25-607 limits assumed)": "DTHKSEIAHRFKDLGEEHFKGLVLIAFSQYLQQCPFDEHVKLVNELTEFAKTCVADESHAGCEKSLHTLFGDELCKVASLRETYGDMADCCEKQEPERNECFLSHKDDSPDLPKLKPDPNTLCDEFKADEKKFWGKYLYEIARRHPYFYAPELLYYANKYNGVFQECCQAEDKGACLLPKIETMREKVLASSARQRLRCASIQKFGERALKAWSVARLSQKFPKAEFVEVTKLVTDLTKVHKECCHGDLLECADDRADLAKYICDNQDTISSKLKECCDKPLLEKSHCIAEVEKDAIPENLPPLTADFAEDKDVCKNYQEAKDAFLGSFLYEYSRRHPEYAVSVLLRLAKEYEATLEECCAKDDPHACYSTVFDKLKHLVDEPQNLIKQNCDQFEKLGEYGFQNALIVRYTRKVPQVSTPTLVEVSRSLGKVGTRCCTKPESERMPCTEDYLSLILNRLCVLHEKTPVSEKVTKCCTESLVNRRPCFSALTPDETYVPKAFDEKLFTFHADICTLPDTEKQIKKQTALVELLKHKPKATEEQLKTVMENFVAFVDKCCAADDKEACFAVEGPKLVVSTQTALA", "assay": "immunoblot (dot blot) on nitrocellulose, streptavidin-alkaline phosphatase", "experimental": "(§1) After washing three times with PBS, the membrane was incubated with 100 μM biotinylated peptide for 2 hrs at RT."}, "bovine asialofetuin": {"target": "T2, bovine asialofetuin (bovine, UniProt P12763 19-359, desialylated glycoprotein)", "T2 construct": "Control protein spotted on nitrocellulose; also called ASF; AF", "T2 sequence (looked up)": "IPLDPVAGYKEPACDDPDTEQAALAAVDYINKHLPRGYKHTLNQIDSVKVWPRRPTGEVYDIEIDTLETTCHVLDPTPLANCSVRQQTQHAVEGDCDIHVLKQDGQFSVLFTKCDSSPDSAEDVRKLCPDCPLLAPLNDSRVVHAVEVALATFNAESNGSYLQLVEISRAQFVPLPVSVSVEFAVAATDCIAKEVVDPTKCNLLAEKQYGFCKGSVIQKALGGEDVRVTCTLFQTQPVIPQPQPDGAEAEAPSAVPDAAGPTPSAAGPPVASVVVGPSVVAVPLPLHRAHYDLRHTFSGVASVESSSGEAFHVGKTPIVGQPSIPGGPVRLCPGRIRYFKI", "assay": "immunoblot (dot blot) on nitrocellulose, streptavidin-alkaline phosphatase", "experimental": "as §1"}, "[1]": {"target": "T3, recombinant extracellular domain of human ErbB-2 tagged with the FLAG epitope (human, UniProt P04626 23-652)", "T3 construct": "extracellular domain; Expressed in HEK-293 cells, purified on anti-FLAG M2; Biotinylated for biopanning; also called ErbB-2-ECD; ErbB2-ECD", "assay": "quenching of intrinsic tryptophan fluorescence of soluble ErbB-2-ECD titrated with peptide, 1:1 model, global fit of three protein concentrations", "experimental": "The titrations were performed at 25° C. with varying amounts of peptide added to a fixed ErbB-2-ECD concentration (200-600 nM) in 2 ml of phosphate buffered saline (pH=7.4). Each measurement was collected for 5-20 sec after 1-2 min pre-equilibration. The excitation shutter remained closed during pre-equilibration of the sample and was opened only during data acquisition in order to minimize photobleaching of the sample. The fluorescence measurements were corrected for dilutions and photobleaching of ErbB-2-ECD. Values reported are an average of three independent measurements. […] The fitting procedure was performed using Origin (Microcal Software Inc).\nIntrinsic tryptophan fluorescence of the protein was monitored as a function of peptide concentration. […] In the analysis, the inventors assumed a model with the stoichiometric ratio of protein to peptide equal to 1:1. The data were collected at 2 μM, 4 μM and 6 μM concentrations of the protein."}, "[2]": {"target": "T3, recombinant extracellular domain of …", "assay": "four rounds of phage display affinity selection on biotinylated ErbB-2-ECD held on streptavidin plates", "method": "Biotinylated antigen was incubated with streptavidin coated plates for 2 hours at 4° C. In first and second round of selection 10 μg of biotinylated antigen per plate was added, in third round amount of antigen was decreased to 1 μg, and for fourth round of selection 0.1 μg of antigen was used. Unoccupied biotin-binding sites were blocked with 0.1 mM biotin. Phage was incubated with antigen for 4 hrs at RT. Plates were washed 10 times with TPBS to remove unbound phage. Bound phage was eluted with elution buffer (0.1 M HCl, pH is adjusted to 2.2 with glycine, 1 mg/ml BSA, 0.1 mg/ml phenol red) at RT during 10 min. […] After each round, except the last, the eluate of the bound phage was propagated and used as input for the next round. Individual clones were characterized by DNA sequencing after the fourth round of selection.\nA random 6-amino acid peptide bacteriophage display library was affinity selected against the ErbB-2-ECD to identify novel peptide-ligands."}}, "note": "Ends that are not written are not given here.", "data": [{"binder": "B1", "values": [{"measurement": "binding result", "setting": "bovine serum albumin", "result": "no binding"}, {"measurement": "binding result", "setting": "bovine asialofetuin", "result": "no binding"}]}, {"binder": "B2", "values": [{"measurement": "Kd", "setting": "[1]", "result": 30.2, "unit": "µM"}]}, {"binder": "B3", "values": [{"measurement": "binding result", "setting": "[2]", "result": "binds"}]}, {"binder": "B4", "values": [{"measurement": "binding result", "setting": "[2]", "result": "binds"}]}, {"binder": "B5", "values": [{"measurement": "binding result", "setting": "[2]", "result": "binds"}]}]}
